From patent US20230050440A1 (Seagen, published 2023) come the findings set out here.

Where a chain is given by its changes, count along the chain named.

First the molecules themselves.
T1: monomeric human TIGIT (Sino Biological 10917-H08H) (human, UniProt Q495A1 22-138, biotinylated in the MSD-SET assay)
T1 construct: Bought protein; also called Human TIGIT monomer; Human TIGIT-His; not shown: His tag
T1 sequence: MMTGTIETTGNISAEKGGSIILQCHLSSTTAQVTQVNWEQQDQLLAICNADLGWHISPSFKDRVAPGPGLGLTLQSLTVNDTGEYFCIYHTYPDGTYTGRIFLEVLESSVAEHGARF

T2: recombinant dimeric human TIGIT-Fc (Acro Biosystems TIT-H5254) (human, UniProt Q495A1 22-141)
T2 construct: Bought protein; also called hTIGIT-Fc; not shown: Fc part of the bought fusion protein
T2 sequence: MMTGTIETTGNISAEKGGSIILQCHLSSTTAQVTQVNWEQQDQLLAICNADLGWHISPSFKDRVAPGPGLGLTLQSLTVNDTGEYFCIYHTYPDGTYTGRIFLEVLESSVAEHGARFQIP

T3: human TIGIT expressed on cells (human, UniProt Q495A1 22-244)
T3 construct: HEK 293 cells stably expressing human TIGIT, primary human T cells or Jurkat effector cells; the cell is named under assay; also called Human TIGIT HEK
T3 sequence: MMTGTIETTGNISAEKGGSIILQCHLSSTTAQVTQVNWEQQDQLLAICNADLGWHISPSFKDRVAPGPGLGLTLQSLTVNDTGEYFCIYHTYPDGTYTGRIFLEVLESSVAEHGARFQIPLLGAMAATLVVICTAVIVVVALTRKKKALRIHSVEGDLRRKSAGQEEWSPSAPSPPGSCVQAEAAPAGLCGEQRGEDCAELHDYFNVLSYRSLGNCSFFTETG

B1: Clone 25A (antibody, V domains shown)
VH: QVQLVQSGAEVKKPGASVKVSCKASGYTFTSYAISWVRQAPGQGLEWMGWISAYNGNTKYAQKLQGRVTMTTDTSTSTAYMELRSLRSDDTAVYYCARDLSSFWSGDVLGAFDIWGQGTMVTVSS
VL: DIQMTQSPSSLSASVGDRVTITCRASQSISSYLNWYQQKPGKAPKLLIYAASSLQSGVPSRFSGSGSGTDFTLTISSLQPEDFATYYCQQSVPPRTFGGGTKVEIK
B2: Clone 25D (antibody, V domains shown)
VH: B1 VH with A33P, S35G, A53S, K59N, S101K
VL: B1 VL
B3: Clone 25E (antibody, V domains shown)
VH: B1 VH with S35A, K59N, D99S, L100G
VL: B1 VL
B4: Clone 25C (antibody, V domains shown)
VH: B1 VH with A33P, S35G, A53S, K59N, D99G, L100A
VL: B1 VL
B5: Clone 25B (antibody, V domains shown)
VH: B1 VH with A33P, S35G, A53S, K59N
VL: B1 VL
B6: Clone 16C (antibody, V domains shown)
VH: QVQLVQSGAEVKKPGSSVKVSCKASGGTFREYAISWVRQAPGQGLEWMGGIHPIFGTARYAQKFQGRVTITADESTSTAYMELSSLRSEDTAVYYCTRQSTWHKLYGTDVWGQGTTVTVSS
VL: DIQMTQSPSSVSASVGDRVTITCRASQGISSWLAWYQQKPGKAPKLLIYAASSLQSGVPSRFSGSGSGTDFTLTISSLQPEDFATYYCQQGDSLPPTFGGGTKVEIK
B7: Clone 16E (antibody, V domains shown)
VH: B6 VH with R30S, E31D, A33P, H52I, F55V, T57G, R59N, T97A, L105V
VL: B6 VL
B8: Clone 16D (antibody, V domains shown)
VH: B6 VH with R30S, E31D, A33P, H52I, F55V, T57G, R59N, Y106F
VL: B6 VL
B9: Clone 2C (antibody, V domains shown)
VH: EVQLVESGGGLVQPGGSLRLSCAASGFTFTDYYMDWVRQAPGKGLEWVGRTRNKVNSYYTEYAASVKGRFTISRDDSKNSLYLQMNSLKTEDTAVYYCARGQYYYGSDRRGYYYMDVWGQGTTVTVSS
VL: EIVLTQSPGTLSLSPGERATLSCRASQSVSSSYLAWYQQKPGQAPRLLIYGASSRATGIPDRFSGSGSGTDFTLTISRLEPEDFAVYYCQQAVPSPLTFGGGTKVEIK
B10: Clone 13D (antibody, V domains shown)
VH: QVQLVQSGAEVKKPGSSVKVSCKASGGTFLSSAISWVRQAPGQGLEWMGSIIPYFGKANYAQKFQGRVTITADESTSTAYMELSSLRSEDTAVYYCARGPSEVKGILGYVWFDPWGQGTLVTVSS
VL: not shown
B11: Clone 13B (antibody, V domains shown)
VH: B10 VH with L30S, S31A, S32W, K104S
VL: not shown
B12: Clone 13C (antibody, IgG1, V domains shown)
VH: B10 VH with Y54L
VL: not shown
B13: Clone 13A (antibody, V domains shown)
VH: B10 VH with I51L, K57T, K104G, G105A
VL: not shown
B14: Clone 27 (antibody, V domains shown)
VH: B1 VH with K59N
VL: EIVMTQSPATLSVSPGERATLSCRASQSVSSNLAWYQQKPGQAPRLLIYGASTRATGIPARFSGSGSGTEFTLTISSLQSEDFAVYYCQQHANHITFGGGTKVEIK
notes: Fully human IgG produced in yeast
B15: Clone 14 (antibody, V domains shown)
VH: B10 VH with L30S, S32Y, Y54I, K57T, K104G, G105A
VL: not shown
notes: as for B14
B16: Clone 18 (antibody, V domains shown)
VH: QVQLVQSGAEVKKPGASVKVSCKASGYTFTSYYMSWVRQAPGQGLEWMGIINPSGGSTSYAQKFQGRVTMTRDTSTSTVYMELSSLRSEDTAVYYCARVRYGYADGMDVWGQGTTVTVSS
VL: B6 VL with V11L, G28S, W32Y, A34N, A50G, G91V, D92Y, S93H, P96F
notes: as for B14
B17: Clone 3 (antibody, V domains shown)
VH: B9 VH with T30S, Y32H, V55A, Y59T, D108S, R109S
VL: EIVLTQSPGTLSLSPGERATLSCRASQSVRSSYLAWYQQKPGQAPRLLIYGASSRATGIPDRFSGSGSGTDFTLTISRLEPEDFAVYYCQQVGPPLTFGGGTKVEIK
notes: as for B14
B18: Clone 22 (antibody, V domains shown)
VH: QVQLQESGPGLVKPSETLSLTCAVSGYSISSGYYWAWIRQPPGKGLEWIGSIYHSGSTYYNPSLKSRVTISVDTSKNQFSLKLSSVTAADTAVYYCARQGYYYGSSGSVDFDLWGRGTLVTVSS
VL: DIQMTQSPSSVSASVGDRVTITCRASQGISSWLAWYQQKPGKAPKLLIYAASNLQSGVPSRFSGSGSGTDFTLTISSLQPEDFATYYCQQANSLPPWTFGGGTKVEIK
notes: as for B14
B19: Clone 21 (antibody, V domains shown)
VH: QLQLQESGPGLVKPSETLSLTCTVSGGSISSSSYYWGWIRQPPGKGLEWIGSIYYSGSTYYNPSLKSRVTISVDTSKNQFSLKLSSVTAADTAVYYCARDPLYQDAPFDYWGQGTLVTVSS
VL: EIVLTQSPATLSLSPGERATLSCRASQSVSSYLAWYQQKPGQAPRLLIYDASNRATGIPARFSGSGSGTDFTLTISSLEPEDFAVYYCQQRANFPTFGGGTKVEIK
notes: as for B14

T5 sequence (chain, as listed by the source limits assumed): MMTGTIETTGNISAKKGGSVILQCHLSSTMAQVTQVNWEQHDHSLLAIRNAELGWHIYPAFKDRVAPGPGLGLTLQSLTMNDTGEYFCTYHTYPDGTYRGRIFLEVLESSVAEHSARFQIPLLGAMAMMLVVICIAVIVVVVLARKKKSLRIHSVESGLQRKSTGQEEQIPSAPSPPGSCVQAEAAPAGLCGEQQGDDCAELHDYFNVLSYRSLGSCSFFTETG

For the first assay, the target named is T4, cyno TIGIT-Fc (cynomolgus monkey).
T4 construct: not shown: Fc part
T4 sequence (chain, as listed by the source limits assumed): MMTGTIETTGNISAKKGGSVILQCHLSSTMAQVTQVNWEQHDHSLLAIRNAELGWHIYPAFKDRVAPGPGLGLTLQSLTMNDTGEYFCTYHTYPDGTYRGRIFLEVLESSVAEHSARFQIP
Briefly: BLI (ForteBio), IgG on sensor, avid. In general terms: In BLI a coated tip is dipped into the sample, and binding shifts an interference pattern.
What is called Kd is the free concentration of one partner at which half of the binding sites on the other are occupied at equilibrium, for simple one-to-one binding. Regarding B1, the Kd stood at 1640 pM.

Consider B2, for which the Kd turned out to be 1180 pM.

B3 came in with a Kd of 1180 pM.

B4 gave a Kd of 1240 pM.

Take B5: binding was put at a Kd of 1400 pM.

With B6, binding was characterised by a dissociation constant (Kd) of 4250 pM.

For B7, binding was put at a Kd of 1360 pM.

For B8, the Kd stood at 1150 pM.

Molecule B9 returned a Kd of 984 pM.

A further assay concerns the target T1, monomeric human TIGIT (Sino Biological …). Briefly: BLI (ForteBio), IgG on sensor, monovalent.
Procedure: (§1) Briefly, ForteBio affinity measurements were performed by loading IgGs on-line onto AHQ sensors. Sensors were equilibrated off-line in assay buffer for 30 minutes and then monitored on-line for 60 seconds for baseline establishment. Sensors with loaded IgGs were exposed to 100 nM antigen (dimeric Fc-fusion antigen or monomeric antigen) for 3 minutes, and afterwards were transferred to assay buffer for 3 minutes for off-rate measurement. All binding and dissociation kinetics were analyzed using the 1:1 binding model.
The optimized antibodies were also tested for ligand blocking in a CD155 ligand competition assay, and for binding to human TIGIT HEK, cyno TIGIT HEK, mouse TIGIT HEK, and parental HEK cell lines, as described above.
As for B1, binding was put at a Kd of 1100 pM.

The molecule B2 displayed a Kd of 846 pM.

B3: the Kd amounted to 851 pM.

Regarding B4, the Kd was determined as 697 pM.

B5: the Kd is 1160 pM.

B10: the affinity, expressed as Kd, was 571 pM.

B11 gave a Kd of 610 pM.

B12: the Kd was found to be 563 pM.

For B13, the Kd was found to be 627 pM.

B6: binding was put at a Kd of 911 pM.

In turn, B7 gave a Kd of 778 pM.

As to B8, the affinity, expressed as Kd, was 596 pM.

Consider B9, for which binding was characterised by a dissociation constant (Kd) of 518 pM.

A further assay shares this target. Nature of the assay: MSD-SET solution equilibrium titration, biotinylated antigen at 50 pM.
Procedure: Antibodies (20 nM in PBS) were coated onto standard bind MSD-ECL plates overnight at 4° C. or at room temperature for 30 min. Plates were then blocked with 1% BSA for 30 min with shaking at 700 rpm, followed by three washes with wash buffer (PBSF+0.05% Tween 20). SET samples were applied and incubated on the plates for 150s with shaking at 700 rpm followed by one wash. Antigen captured on a plate was detected with 250 ng/ml sulfotag-labeled streptavidin in PBSF by incubation on the plate for 3 min. The plates were washed three times with wash buffer and then read on the MSD Sector Imager 2400 instrument using 1× Read Buffer T with surfactant. The percent free antigen was plotted as a function of titrated antibody in Prism and fit to a quadratic equation to extract the KD. To improve throughput, liquid handling robots were used throughout MSD-SET experiments, including SET sample preparation.
Molecule B1 displayed a Kd of 18 pM.

Consider B2, for which the Kd worked out at 27 pM.

B3 returned a Kd of 13 pM.

Take B4: binding was put at a Kd of 5.6 pM.

In turn, B5 yielded a Kd of 22 pM.

B10 gave a Kd of 5 pM.

B11: the Kd is 5.3 pM.

B12 yielded a Kd of 8.6 pM.

As for B13, the Kd was found to be 25 pM.

B6 returned a dissociation constant (Kd) of 6.3 pM.

B7 displayed a Kd of 11 pM.

For the molecule B8, the Kd is 13 pM.

On to B9, for which the Kd came to 16 pM.

The target of a further assay is T2, recombinant dimeric human TIGIT-Fc …. Briefly: BLI (ForteBio Octet RED384), IgG on AHQ sensor, 100 nM antigen, 1:1 model.
Procedure: as §1
Consider B14, for which the Kd turned out to be 558 pM.

For the molecule B15, the Kd was determined as 2010 pM.

B16: the Kd stood at 2390 pM.

In the case of B17, the Kd turned out to be 2770 pM.

Take B18: the Kd was 790 pM.

In the case of B19, the Kd is 585 pM.

The next assay concerns the target T1, monomeric human TIGIT (Sino Biological …). The assay is described as above.
Procedure: as §1
Take B14: the affinity, expressed as Kd, was 2320 pM.

For the molecule B15, the Kd came out at 58700 pM.

B16 yielded a Kd of 50800 pM.

The molecule B17 had a Kd of 73600 pM.

For B18, binding was put at a Kd of 13800 pM.

Consider B19, for which the Kd worked out at 2180 pM.

The target of a further assay is T3, human TIGIT expressed on cells. Briefly: flow cytometry on HEK 293 cells expressing the target, MFI over parental HEK 293.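 Further: bound antibody detected with PE-labelled anti-human IgG, 15 min on ice. FOB equals median fluorescence on TIGIT-positive cells divided by that on target-negative cells.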
Procedure: (§2) HEK 293 cells were engineered to stably express high levels of human, mouse or cynomolgus monkey TIGIT by lentiviral transduction. […] Cells were then washed twice with wash buffer and incubated with anti-human IgG conjugated to PE for 15 minutes on ice. Cells were then washed twice with wash buffer and analyzed by flow cytometry on a FACS Canto II instrument (BD Biosciences). Fold over background (FOB) was calculated as the median fluorescence intensity (MFI) of the anti-TIGIT clone bound to target-positive cells divided by the MFI of the anti-TIGIT clone bound to target-negative cells.
Take B1: the “FOB (Fold Over Background)” value stood at 207 fold.

Consider B2, for which the “FOB (Fold Over Background)” value came out at 225 fold.

On to B3, for which the “FOB (Fold Over Background)” value is 204 fold.

As for B4, the “FOB (Fold Over Background)” value is 216 fold.

Regarding B5, the “FOB (Fold Over Background)” value was 222 fold.

Take B6: the “FOB (Fold Over Background)” value is 208 fold.

In the case of B7, the “FOB (Fold Over Background)” value turned out to be 195 fold.

For B8, the “FOB (Fold Over Background)” value was 199 fold.

Regarding B9, the “FOB (Fold Over Background)” value worked out at 193 fold.

Another assay addresses T5, cynomolgus monkey TIGIT expressed on cells (cynomolgus monkey).
T5 construct: HEK 293 cells stably expressing cynomolgus monkey TIGIT or cynomolgus T cells; also called Cyno TIGIT HEK
Described as above.
Procedure: as §2
As to B1, the “FOB (Fold Over Background)” value is 238 fold.

On to B2, for which the “FOB (Fold Over Background)” value is 272 fold.

Turning to B3, the “FOB (Fold Over Background)” value was found to be 252 fold.

Take B4: the “FOB (Fold Over Background)” value is 286 fold.

Turning to B5, the “FOB (Fold Over Background)” value was 291 fold.

B6: the “FOB (Fold Over Background)” value turned out to be 157 fold.

On to B7, for which the “FOB (Fold Over Background)” value worked out at 186 fold.

As for B8, the “FOB (Fold Over Background)” value is 241 fold.

On to B9, for which the “FOB (Fold Over Background)” value worked out at 224 fold.
